Assay [1] concerns the target recombinant wild-type SARS-CoV-2 S trimer (ELISA antigen) (SARS-CoV-2 wild-type, UniProt P0DTC2).
Assay [2] concerns the target recombinant RBD protein of wild-type SARS-CoV-2 (ELISA antigen) (SARS-CoV-2 wild-type, UniProt P0DTC2).

B1: P195-2A3 (antibody, V domains shown)
VH: QVTLRESGPALVKPTQTLTLTCTFSGFSLSTSGMCVSWIRQPPGKALEWLALIDWDDDKYYSTSLKTRLTISKDTSKNQVVLRMTNMDPVDTATYYCARSWVGGGLDVWGQGTTVTVSS
VL: not shown
For B1, the binding result in assay [1] and in assay [2] was “binds” throughout.

B2: P10S-2F9 (antibody, V domains shown)
VH: QVTLRESGPALVKPTQTLPLTCTFSGFSLSTSGMCVSWIRQPPGKALEWLALIDWDDNKYYSTSLKARLTISKDTSKNQVVLTMTNMDPVDTATYYCARIPALLRYLDKFYYFGMDVWGQGTTVTVSS
VL: QSVLTQPPSVSAAPGQKVTISCSGSSPNIGNNYVSWYQQLPGTAPKLLIYDNNKRPSGIPDRFSGSKSGTSATLGITGLQTGDEAGYYCGTWDSSLSAVVFGGGTKLTVL
With B2, the binding result in assay [1] and in assay [2] was “binds” throughout.

B3: P195-1B7 (antibody, V domains shown)
VH: QITLKESGPTLVKPTQTLTLTCTFSGFSLSTSGVGVGWIRQPPGKALEWLALIYWDDDKRYSPSLKSRLTITKDTSKNQVVLTMTNMDPVDTATYYCAHSGYSGYDWRGFDYWGQGTLVTVSS
VL: SYELTQPPSVSVSPGQTARITCSADALPKQYAYWYQQKPGQAPVLVIYKDSERPSGIPERFSGSSSGTTVTLTISGVQAEDEADYYCQSADSSGTYPVVFGGGTKLTVL
With B3, the binding result in assay [1] and in assay [2] was “binds” each time.

B4: P10S-1D8 (antibody, V domains shown)
VH: QMQLVQSGPEVKKPGTSVKVPCKASGFTFSSSAVQWVRQARGQRLEWIGWIVVGSGNTNYAQKFQERVTITRDMSTSTAYMELSSLRSEDTAVYYCAAPGCNSTSCYDGFDIWGQGTMVTVSS
VL: not shown
Take B4: the binding result in assay [1] and in assay [2] was “binds” throughout.

B5: P186-1H2 (antibody, V domains shown)
VH: EVQLVESGGGLVQPGRSLRLSCAASGFTFGDYAMHWVRQSPGKGLEWVSGITWNSAGIGYADSVKGRFTISRDNAKNSLYLQMNSLRVEDTALYYCAKAPKWGGVDYLFDYWGQGTLVTVSS
VL: not shown
For the molecule B5, the binding result in assay [1] and in assay [2] was “binds” throughout.

B6: P195-1E11 (antibody, V domains shown)
VH: EVQLVESGGGLVQPGRSLRLSCAASGFTFDDYAMHWVRQAPGKGLEWVSGISWNSGSIVYADSVKGRFTISRDNAKNSLYLQMNSLRAEDTALYYCAKDSEDCSSTNCYFDYWGQGTLVTVSS
VL: not shown
Turning to B6, the binding result in assay [1] and in assay [2] was “binds” throughout.

B7: P5-2H11 (antibody, V domains shown)
VH: EVQLVESGGGLIQPGGSLRLSCAASEFTVSSNYMSWVRQAPGKGLEWVSIIYSGGSTFYADSVKGRFTISRDNSQNTLYLQMNSLRAEDTAVYYCARTLPLYGDYFDYWGQGTLVTVSS
VL: QSVLTQPPSVSGAPGQRVTISCTGSSSNIGAGYDVHWYQQLPGTAPKLLIYGNNNRPSGVPDRFSGSKSGTSASLAITGLQPEDEADYYCQSYDSSLSVVFGGGAKLTVL
In the case of B7, the binding result in assay [1] and in assay [2] was “binds” throughout.

B8: P186-2B1 (antibody, V domains shown)
VH: EVQLVESGGGLVQPGGSLRLSCAASGFTVSSNYMSWVRQAPGKGLEWVSVIYSGGSTYYTDSVKGRFTISRHNSKNTLYLQMNSLRVEDTAVYYCARVGTNYINNSGWYFDYWGQGTLVTVSS
VL: not shown
For B8, the binding result in assay [1] and in assay [2] was “binds” in each case.

B9: P2-2D8 (antibody, V domains shown)
VH: EVQLVESGGGLVKPGGSLRLSCAASGFTFSNAWMNWVRQAPGKGLEWVGRIKSKADGGTTDYAAPVKGRFTISRDDSKNTLYLQMNSLKTDDTAVYYCTTTRAVAATLNFLFSYYDGMDVWGQGTTVTVSS
VL: NFMLTQPHSVSESPGKTVTISCTGSSGSIASNYVQWYQQRPGSAPTTVIYEDNQRPSGVPDRFSGSIDSSSNSASLTISGLKTEDEADYYCQSYDSNNHLVLFGGGTKLTVL
In the case of B9, the binding result in assay [1] and in assay [2] was “binds” in each case.

The record behind these values is paper PMC10063446 (Nature Immunology, 2023).
